This note sets out measurements from patent CN113564213A.

In assay [1] the target is 增强型荧光蛋白eGFP (eGFP的A206K突变体, mEGFP). Briefly: bead capture from 1 mL eGFP IVTT liquid, beads in excess, 1 h; fluorescence (RFU) of IVTT supernatant against flow-through.
Assay [2] has the same target. Nature of the assay: bead capture from 2 mL eGFP IVTT liquid, eGFP in excess, 1 h; fluorescence (RFU) of Total against Flow-through.

B1: antiEGFP-mScarlet-Tamvavidin2融合蛋白 (VHH, part only; not given: mScarlet and Tamavidin2 parts, not shown: large carriers)
chain, part: MAQVQLVESGGALVQPGGSLRLSCAASGFPVNRYSMRWYRQAPGKEREWVAGMSSAGDRSSYEDSVKGRFTISRDDARNTVYLQMNSLKPEDTAVYYCNVNVGFEYWGQGTQVTVSS
In assay [1], B1 yielded a 结合效率 of 98.2%. This molecule also displayed a 载量 (每毫升antiEGFP磁珠结合的eGFP蛋白的质量) in assay [2] of 17.7 mg/mL.
